Experimental data from ChEMBL document CHEMBL4673265, “The food-grade antimicrobial xanthorrhizol targets the enoyl-ACP reductase (FabI) in Escherichia coli” (Bioorg Med Chem Lett, 2020).
Changes are numbered by the printed parent chain. Numbers in names are those of the source.

Tests used:
[1] = compound: NC(=O)C1=CN([C@@H]2O[C@H](COP(=O)(O)OP(=O)(O)OC[C@H]3O[C@@H](n4cnc5c(N)ncnc54)[C@H](O)[C@@H]3O)[C@@H](O)[C@H]2O)C=CC1; assay: Inhibition of wild-type Escherichia coli FabI assessed as reduction in Km
[2] = compound: NC(=O)C1=CN([C@@H]2O[C@H](COP(=O)(O)OP(=O)(O)OC[C@H]3O[C@@H](n4cnc5c(N)ncnc54)[C@H](O)[C@@H]3O)[C@@H](O)[C@H]2O)C=CC1; assay: Inhibition of wild-type Escherichia coli FabI catalytic activity
[3] = compound: NC(=O)C1=CN([C@@H]2O[C@H](COP(=O)(O)OP(=O)(O)OC[C@H]3O[C@@H](n4cnc5c(N)ncnc54)[C@H](O)[C@@H]3O)[C@@H](O)[C@H]2O)C=CC1; assay: Inhibition of wild-type Escherichia coli FabI assessed as ratio of Kcat/Km
[4] = compound: NC(=O)C1=CN([C@@H]2O[C@H](COP(=O)(O)OP(=O)(O)OC[C@H]3O[C@@H](n4cnc5c(N)ncnc54)[C@H](O)[C@@H]3O)[C@@H](O)[C@H]2O)C=CC1; assay: Inhibition of Escherichia coli FabI F203L mutant assessed as ratio of Kcat/Km
[5] = compound: NC(=O)C1=CN([C@@H]2O[C@H](COP(=O)(O)OP(=O)(O)OC[C@H]3O[C@@H](n4cnc5c(N)ncnc54)[C@H](O)[C@@H]3O)[C@@H](O)[C@H]2O)C=CC1; assay: Inhibition of Escherichia coli FabI F203L mutant catalytic activity
[6] = compound: NC(=O)C1=CN([C@@H]2O[C@H](COP(=O)(O)OP(=O)(O)OC[C@H]3O[C@@H](n4cnc5c(N)ncnc54)[C@H](O)[C@@H]3O)[C@@H](O)[C@H]2O)C=CC1; assay: Inhibition of Escherichia coli FabI F203L mutant assessed as reduction in Km
[7] = compound: NC(=O)C1=CN([C@@H]2O[C@H](COP(=O)(O)OP(=O)(O)OC[C@H]3O[C@@H](n4cnc5c(N)ncnc54)[C@H](O)[C@@H]3O)[C@@H](O)[C@H]2O)C=CC1; assay: Inhibition of Escherichia coli FabI G93V mutant assessed as ratio of Kcat/Km
[8] = compound: CC(C)=CCC[C@@H](C)c1ccc(C)c(O)c1; assay: Uncompetitive inhibition of Escherichia coli FabI G93V mutant assessed inhibition constant using NADH as substrate by Lineweaver-Burk analysis
[9] = compound: NC(=O)C1=CN([C@@H]2O[C@H](COP(=O)(O)OP(=O)(O)OC[C@H]3O[C@@H](n4cnc5c(N)ncnc54)[C@H](O)[C@@H]3O)[C@@H](O)[C@H]2O)C=CC1; assay: Inhibition of Escherichia coli FabI G93V mutant assessed as reduction in Km
[10] = compound: NC(=O)C1=CN([C@@H]2O[C@H](COP(=O)(O)OP(=O)(O)OC[C@H]3O[C@@H](n4cnc5c(N)ncnc54)[C@H](O)[C@@H]3O)[C@@H](O)[C@H]2O)C=CC1; assay: Inhibition of Escherichia coli FabI G93V mutant catalytic activity
[11] = compound: NC(=O)C1=CN([C@@H]2O[C@H](COP(=O)(O)OP(=O)(O)OC[C@H]3O[C@@H](n4cnc5c(N)ncnc54)[C@H](O)[C@@H]3O)[C@@H](O)[C@H]2O)C=CC1; assay: Inhibition of Escherichia coli FabI Y156V mutant assessed as ratio of Kcat/Km
[12] = compound: NC(=O)C1=CN([C@@H]2O[C@H](COP(=O)(O)OP(=O)(O)OC[C@H]3O[C@@H](n4cnc5c(N)ncnc54)[C@H](O)[C@@H]3O)[C@@H](O)[C@H]2O)C=CC1; assay: Inhibition of Escherichia coli FabI Y156V mutant assessed as reduction in Km
[13] = compound: NC(=O)C1=CN([C@@H]2O[C@H](COP(=O)(O)OP(=O)(O)OC[C@H]3O[C@@H](n4cnc5c(N)ncnc54)[C@H](O)[C@@H]3O)[C@@H](O)[C@H]2O)C=CC1; assay: Inhibition of Escherichia coli FabI Y156V mutant catalytic activity
[14] = compound: NC(=O)C1=CN([C@@H]2O[C@H](COP(=O)(O)OP(=O)(O)OC[C@H]3O[C@@H](n4cnc5c(N)ncnc54)[C@H](O)[C@@H]3O)[C@@H](O)[C@H]2O)C=CC1; assay: Inhibition of Escherichia coli FabI F203V mutant assessed as ratio of Kcat/Km
[15] = compound: NC(=O)C1=CN([C@@H]2O[C@H](COP(=O)(O)OP(=O)(O)OC[C@H]3O[C@@H](n4cnc5c(N)ncnc54)[C@H](O)[C@@H]3O)[C@@H](O)[C@H]2O)C=CC1; assay: Inhibition of Escherichia coli FabI F203V mutant catalytic activity
[16] = compound: NC(=O)C1=CN([C@@H]2O[C@H](COP(=O)(O)OP(=O)(O)OC[C@H]3O[C@@H](n4cnc5c(N)ncnc54)[C@H](O)[C@@H]3O)[C@@H](O)[C@H]2O)C=CC1; assay: Inhibition of Escherichia coli FabI F203V mutant assessed as reduction in Km

B1: Enoyl-[acyl-carrier-protein] reductase [NADH] FabI (Escherichia coli K-12), P0AEK4 (protein)
chain: MGFLSGKRILVTGVASKLSIAYGIAQAMHREGAELAFTYQNDKLKGRVEEFAAQLGSDIVLQCDVAEDASIDTMFAELGKVWPKFDGFVHSIGFAPGDQLDGDYVNAVTREGFKIAHDISSYSFVAMAKACRSMLNPGSALLTLSYLGAERAIPNYNVMGLAKASLEANVRYMANAMGPEGVRVNAISAGPIRTLAASGIKDFRKMLAHCEAVTPIRRTVTIEDVGNSAAFLCSDLSAGISGEVVHVDGGFSIAAMNELELK
[1]
  Km: 70.2 µM
[2]
  kcat: 10.8 s⁻¹
[3]
  kcat/Km: 150000 M⁻¹ s⁻¹

B2: Enoyl-[acyl-carrier-protein] reductase [NADH] FabI (Escherichia coli K-12), P0AEK4 F203L (protein)
chain: B1 chain with F203L
[4]
  kcat/Km: 70000 M⁻¹ s⁻¹
[5]
  kcat: 3.65 s⁻¹
[6]
  Km: 51.5 µM

B3: Enoyl-[acyl-carrier-protein] reductase [NADH] FabI (Escherichia coli K-12), P0AEK4 G93V (protein)
chain: B1 chain with G93V
[7]
  kcat/Km: 110000 M⁻¹ s⁻¹
[8]
  Ki: 4.1 µM
[9]
  Km: 30.9 µM
[10]
  kcat: 3.44 s⁻¹

B4: Enoyl-[acyl-carrier-protein] reductase [NADH] FabI (Escherichia coli K-12), P0AEK4 Y156V (protein)
chain: B1 chain with Y156V
[11]
  kcat/Km: 4000 M⁻¹ s⁻¹
[12]
  Km: 41.7 µM
[13]
  kcat: 0.16 s⁻¹

B5: Enoyl-[acyl-carrier-protein] reductase [NADH] FabI (Escherichia coli K-12), P0AEK4 F203V (protein)
chain: B1 chain with F203V
[14]
  kcat/Km: 9000 M⁻¹ s⁻¹
[15]
  kcat: 0.38 s⁻¹
[16]
  Km: 44.2 µM
